For 2 molecules, Kd and Ka results are on record in article PMC4488664, “An Inactive Geminin Mutant That Binds Cdt1” (Genes, 2015).

The target of assay [1] is mouse Cdt1^172-368 (mouse) (UniProt Q8R4E9). Description: ITC; MicroCal ITC200, 18 °C; 20 mM Na-HEPES pH 7.5, 300 mM NaCl, 7 mM β-mercaptoethanol; 17 injections of Geminin (WT 0.432 mM, AWA 0.297 mM) into 200 µL Cdt1 (0.044 mM). (In general: Isothermal titration calorimetry measures the heat released or taken up as one component is titrated into another.)
Assay [2] concerns the target T1, mouse Cdt1^172-368 (mouse, UniProt Q8R4E9 172-368).
T1 chain: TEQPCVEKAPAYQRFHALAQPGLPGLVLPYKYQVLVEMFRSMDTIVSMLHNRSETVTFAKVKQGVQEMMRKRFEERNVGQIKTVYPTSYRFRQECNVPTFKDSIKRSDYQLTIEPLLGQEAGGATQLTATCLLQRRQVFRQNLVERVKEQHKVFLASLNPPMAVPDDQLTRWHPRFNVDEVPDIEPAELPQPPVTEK
The assay is described as follows: ITC.

Assay [3] has as its target T2, mouse Cdt1^172-368 (mouse, UniProt Q8R4E9 172-368).
T2 construct: Cdt1, mouse, residues 172-368; Inserted between the NdeI and KpnI sites of pET Duet 1; source: E. coli BL21, purified, dialyzed
T2 sequence (looked up): T1 chain
Description: ITC; MicroCal ITC200, 18 °C; 20 mM Na-HEPES pH 7.5, 300 mM NaCl, 7 mM β-mercaptoethanol; 17 injections of Geminin (WT 0.432 mM, AWA 0.297 mM) into 200 µL Cdt1 (0.044 mM). The note with it: both partners purified.

Substitutions are numbered along the chain they refer to.

B1: mouse Geminin^79-157 AWA (domain or fragment)
chain: TQEAFDLISKENPSSQAWAEVAEQRRKALYEALKENEKLHKEIEQKDSEIARLRKENKDLAEVAEHVQYMAEVIERLSN
Regarding B1, in assay [1], the Kd (in general, a measure of binding affinity in units of concentration) was 250 nM. Also, in assay [2], the Ka was 4e+06 M⁻¹.

B2: mouse Geminin^79-157 wild type (domain or fragment, UniProt O88513 79-157, looked up)
chain: B1 chain with A17Y, A19K
notes: Geminin, mouse, residues 79-157 (methods); Limits differ between methods (79-157) and legend (72-157); also called Geminin^WT; source: E. coli BL21, purified over nickel-NTA agarose, dialyzed
Take B2: the affinity in assay [3], expressed as Kd, was 290 nM. Moreover, the Ka in assay [2] came to 3.5e+06 M⁻¹.
